Reference: the supplement of paper PMC10126150
± gives the standard deviation of the averaged measurements.

System: ATP
Assay: switch fluorescence ratio, 500 uM ATP over buffer (Cy3 cluster intensity, sum of 5 cycles each) (fold (ratio)); higher = stronger signal-on switching upon ATP binding; sequences stand for … in TCGTCGGCAGCGTCAGATGTGTATAAGAGACAGTTTTTTTTTTTTTTTTTTTTTTTTT…TC
Conditions: aptamer strand: ATP DNA aptamer (quencher-CACCTGGGGGAGTATTGCGGAGGAAGG + anchor), 100 nM annealed; ATP concentration: 500 uM
Method in brief: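 The fluorescence ratio divides summed target-cycle Cy3 intensity by summed buffer-cycle Cy3 intensity for each cluster and is averaged per switch-domain sequence. Cy3-labelled switching-strand clusters on a modified Illumina MiSeq flow-cell were annealed to 100 nM quencher-labelled ATP aptamer, then imaged in selection buffer and again after 15 min with 500 uM ATP at 22 °C. Five such cycles were run, with NaOH stripping and re-annealing between them, and clusters outside 100-1000 RFU were excluded.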
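Further: ATP exposure 15 min at 22 °C before imaging.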

Sequence	switch fluorescence ratio
TAAGGATGGG	0.961 ± 0.032
TAAGGATGTA	1 ± 0.033
TAAGGCTAGT	0.969 ± 0.01
TAAGGCTTCG	0.96 ± 0.039
TAAGGGAAGC	1.04 ± 0.04
TAAGGGAGGT	0.996 ± 0.044
TAAGGGAGTA	1.004 ± 0.0065
TAAGGGCAAG	1.01 ± 0.013
TAAGGGGAAC	1.01 ± 0.03
TAAGGGGCAT	1.04 ± 0.093
TAAGGGGCTT	0.992 ± 0.021
TAAGGGGGCA	1.01 ± 0.052
TAAGGGGGTT	1.01 ± 0.036
TAAGGGGTCG	1.03 ± 0.046
TAAGGGGTGC	1.06 ± 0.014
TAAGGGTATG	0.965 ± 0.066
TAAGGGTGCT	1.039 ± 0.0037
TAAGGGTGGG	1 ± 0.043
TAAGGGTGGT	1.01 ± 0.027
TAAGGGTTAA	0.994 ± 0.012
TAAGGGTTG	0.985 ± 0.058
TAAGGGTTTG	0.977 ± 0.036
TAAGGTAAGT	0.987 ± 0.021
TAAGGTATGT	1.03 ± 0.026
TAAGGTGCTC	1.1 ± 0.01

Sequence	switch fluorescence ratio
TAAGGTGTTT	1.08 ± 0.076
TAAGGTTCTT	1.01 ± 0.011
TAAGGTTGCA	0.983 ± 0.032
TAAGTAATTT	1.01 ± 0.042
TAAGTACTTT	0.977 ± 0.025
TAAGTAGTAT	0.987 ± 0.017
TAAGTATTG	1.01 ± 0.017
TAAGTCCTTT	0.9828 ± 0.0041
TAAGTGCGGG	0.974 ± 0.0034
TAAGTGGGAA	1.01 ± 0.035
TAAGTGGTGC	1.05 ± 0.031
TAAGTGGTT	0.994 ± 0.011
TAAGTTAGAG	0.97 ± 0.024
TAAGTTATGT	1.01 ± 0.015
TAAGTTGAGC	0.965 ± 0.057
TAAGTTGGGG	0.995 ± 0.02
TAAGTTGGTT	1.06 ± 0.014
TAAGTTGTAT	1 ± 0.035
TAAGTTTGCC	1.01 ± 0.04
TAAGTTTGGG	0.968 ± 0.04
TAAGTTTGGT	0.985 ± 0.021
TAAGTTTTGG	0.974 ± 0.017
TAATAAAGAT	0.969 ± 0.054
TAATAACTCT	1 ± 0.061
TAATAATGGA	1.01 ± 0.035

Sequence	switch fluorescence ratio
TAATAATTCG	1.01 ± 0.012
TAATACCGTA	1.06 ± 0.084
TAATACTGTT	0.888 ± 0.031
TAATACTTTG	1.04 ± 0.024
TAATAGAGCT	0.995 ± 0.03
TAATCAGAGC	1.02 ± 0.039
TAATCAGGGG	1.07 ± 0.16
TAATCCCGGG	1.3 ± 0.4
TAATCCTAGT	0.997 ± 0.036
TAATCGCATA	2.05 ± 1.2
TAATCGGCCT	1.04 ± 0.05
TAATCGGGGA	0.984 ± 0.029
TAATCGTGTT	0.983 ± 0.014
TAATCTGCTG	1.01 ± 0.02
TAATCTGGTA	0.986 ± 0.017
TAATCTTAGA	0.99489 ± 5.2e-05
TAATGACCTT	1.16 ± 0.18
TAATGCAATA	1.67 ± 0.054
TAATGCGGGA	1 ± 0.027
TAATGCTGTG	0.984 ± 0.036
TAATGCTTGG	1.01 ± 0.031
TAATGGAGGT	0.979 ± 0.038
TAATGGAGTA	1.01 ± 0.052
TAATGGATCG	1 ± 0.044
TAATGGCCTT	0.9862 ± 0.0021

Sequence	switch fluorescence ratio
TAATGGGATA	1.02 ± 0.055
TAATGGGATG	0.974 ± 0.015
TAATGGGGAT	0.989 ± 0.022
TAATGGGTGC	1.06 ± 0.038
TAATGGTCAC	1.01 ± 0.011
TAATGTTACT	1.04 ± 0.039
TAATGTTATG	1.03 ± 0.017
TAATGTTTGT	0.986 ± 0.048
TAATTACGGA	1.06 ± 0.026
TAATTACTAT	1.12 ± 0.17
TAATTATATT	0.988 ± 0.023
TAATTATCCG	1.05 ± 0.044
TAATTCGCGA	1.15 ± 0.034
TAATTCGGGG	0.97 ± 0.057
TAATTCTGGT	0.965 ± 0.025
TAATTCTTTT	0.986 ± 0.029
TAATTGGGAG	1.01 ± 0.02
TAATTGGGGG	1 ± 0.03
TAATTGGTTG	0.982 ± 0.012
TAATTTATCC	1.022 ± 0.0095
TAATTTGGA	0.9652 ± 0.004
TAATTTGGGA	0.997 ± 0.013
TAATTTGGGT	1 ± 0.015
TAATTTGTTG	0.988 ± 0.028
TAATTTTAGT	1.0092 ± 0.00027

Sequence	switch fluorescence ratio
TAATTTTATG	0.998 ± 0.025
TAATTTTTAG	1.01 ± 0.025
TAATTTTTGT	0.993 ± 0.026
TACAAAGATG	1.025 ± 0.0056
TACAAAGCAG	1.11 ± 0.037
TACAAAGGCG	1.06 ± 0.018
TACAAATTGT	1.03 ± 0.025
TACAAGAATA	0.986 ± 0.03
TACAATCGGA	0.9791 ± 0.0067
TACAATGCTT	1.02 ± 0.017
TACACCTTTC	2.3 ± 0.073
TACACTGGCG	1.05 ± 0.057
TACAGATGT	1.028 ± 0.01
TACAGCACTG	1.29 ± 0.15
TACAGCTAAA	1.03 ± 0.032
TACAGCTTAA	1.022 ± 0.0019
TACAGGAGGG	1.01 ± 0.021
TACAGGCTGA	0.9858 ± 0.0046
TACAGGGGAA	1.09 ± 0.056
TACAGGGTCG	1.13 ± 0.049
TACAGGGTTT	1.021 ± 0.005
TACAGGTGCA	1.81 ± 0.022
TACAGTGTTT	0.975 ± 0.025
TACAGTTACC	1.31 ± 0.11
TACATATTTT	1.05 ± 0.043

Sequence	switch fluorescence ratio
TACATCTGAA	0.993 ± 0.023
TACCAAAAAA	1.2 ± 0.18
TACCAACTTA	1.1 ± 0.033
TACCATATTT	1.04 ± 0.021
TACCATGCGG	1.023 ± 0.01
TACCATTTGT	1 ± 0.044
TACCCAGGGA	1.64 ± 0.13
TACCCGACTT	1.13 ± 0.009
TACCCGCTGT	1.56 ± 0.39
TACCGGATGG	1.03 ± 0.021
TACCGGGGGC	1.14 ± 0.09
TACCGGTTCG	1 ± 0.011
TACCGTGGGC	1.04 ± 0.036
TACCTATTTT	1.035 ± 0.0014
TACCTGGGTC	0.996 ± 0.028
TACCTGGTAC	1.056 ± 0.0043
TACGACCGTG	1.01 ± 0.046
TACGATAATC	1.146 ± 0.011
TACGATGGTT	0.989 ± 0.028
TACGATTTAT	1.018 ± 0.0096
TACGCACATA	1.48 ± 0.15
TACGCAGTAT	1.15 ± 0.061
TACGCCTGGT	1.034 ± 0.0071
TACGCTCTCA	1.21 ± 0.23
TACGGAGTCT	0.9814 ± 0.0075

Sequence	switch fluorescence ratio
TACGGATTAG	1.051 ± 0.0051
TACGGCAAAT	1.121 ± 0.01
TACGGCAGGG	1.059 ± 0.0024
TACGGGACTT	1.26 ± 0.033
TACGGGGAGT	0.998 ± 0.026
TACGGGGGTC	1.02 ± 0.047
TACGGGTAT	0.9977 ± 0.0024
TACGGGTTTT	1.01 ± 0.039
TACGGTACGG	1.18 ± 0.04
TACGGTCGCG	0.9949 ± 0.0036
TACGGTGGGG	1.01 ± 0.027
TACGTATAAT	1.15 ± 0.015
TACGTATGGG	0.997 ± 0.021
TACGTGAATT	1.04 ± 0.05
TACGTGATTT	1.14 ± 0.093
TACGTGGGTT	0.994 ± 0.051
TACGTTAGCT	1.119 ± 0.0018
TACGTTCTGA	0.999 ± 0.049
TACTACCTGG	1.3 ± 0.25
TACTATACGT	1.276 ± 0.007
TACTATGATT	1.04 ± 0.018
TACTATTATC	1.0537 ± 0.00026
TACTCAGTAT	1.0208 ± 0.00084
TACTCATTGC	1.03 ± 0.067
TACTCGAAAC	1.8 ± 0.97

Sequence	switch fluorescence ratio
TACTCGGCCG	1.02 ± 0.035
TACTCGGCTC	1.66 ± 0.11
TACTCGGTTT	0.98 ± 0.014
TACTCTGTGT	1.01 ± 0.014
TACTGAGACA	1.074 ± 0.0066
TACTGGAGGC	1.02 ± 0.043
TACTGTCTTG	0.97 ± 0.014
TACTTACGAT	1.37 ± 0.065
TACTTCATCA	1.03 ± 0.02
TACTTGGCCG	1.01 ± 0.052
TACTTGTAAT	1.02 ± 0.055
TACTTGTGTA	1.02 ± 0.014
TACTTTTGAC	1.04 ± 0.011
TAGAAAAATT	0.993 ± 0.015
TAGAAACGGG	1.02 ± 0.031
TAGAAAGATT	1.02 ± 0.016
TAGAAATCGG	1.02 ± 0.015
TAGAAATTAA	0.977 ± 0.019
TAGAAATTCG	1.28 ± 0.5
TAGAACAACT	1.21 ± 0.34
TAGAACCTCG	1.02 ± 0.057
TAGAACTTCG	1.014 ± 0.0077
TAGAAGGGAA	1.03 ± 0.063
TAGAAGTATT	1.01 ± 0.027
TAGAAGTGGT	0.9963 ± 0.0084
